Experimental data taken from paper PMC5868845.

Biological target: 4F2hc (UniProt P08195)
Experiment: co-IP from transfected 293FT, western blot
Settings: reference: Flag-NT wild type

Substance | binding against the reference (sites S233) | binding against the reference (sites S237)
Girdin NT domain, 1-256 (from UniProt Q3V6T2) Flag-NT S233A | lost | 
Girdin NT domain, 1-256 (from UniProt Q3V6T2) Flag-NT S237A |  | lost
